Assay results as given in patent US7851436 (WASHINGTON UNIVERSITY IN ST LOUIS, dated 2010).

Legend:
[1] = molecular target: T1, α5 integrin (human, UniProt P08648 42-1049); experiment: GST pull-down from surface-biotinylated Ch-1 lysate, Western blot (data not shown)
T1 construct: whole, on cells

[2] = molecular target: T2, α4 integrin (human, UniProt P13612 34-1032); experiment: as above
T2 construct: whole, on cells; The antibody lists in the methods name α2, α3 and α5 but not α4
T2 sequence (looked up): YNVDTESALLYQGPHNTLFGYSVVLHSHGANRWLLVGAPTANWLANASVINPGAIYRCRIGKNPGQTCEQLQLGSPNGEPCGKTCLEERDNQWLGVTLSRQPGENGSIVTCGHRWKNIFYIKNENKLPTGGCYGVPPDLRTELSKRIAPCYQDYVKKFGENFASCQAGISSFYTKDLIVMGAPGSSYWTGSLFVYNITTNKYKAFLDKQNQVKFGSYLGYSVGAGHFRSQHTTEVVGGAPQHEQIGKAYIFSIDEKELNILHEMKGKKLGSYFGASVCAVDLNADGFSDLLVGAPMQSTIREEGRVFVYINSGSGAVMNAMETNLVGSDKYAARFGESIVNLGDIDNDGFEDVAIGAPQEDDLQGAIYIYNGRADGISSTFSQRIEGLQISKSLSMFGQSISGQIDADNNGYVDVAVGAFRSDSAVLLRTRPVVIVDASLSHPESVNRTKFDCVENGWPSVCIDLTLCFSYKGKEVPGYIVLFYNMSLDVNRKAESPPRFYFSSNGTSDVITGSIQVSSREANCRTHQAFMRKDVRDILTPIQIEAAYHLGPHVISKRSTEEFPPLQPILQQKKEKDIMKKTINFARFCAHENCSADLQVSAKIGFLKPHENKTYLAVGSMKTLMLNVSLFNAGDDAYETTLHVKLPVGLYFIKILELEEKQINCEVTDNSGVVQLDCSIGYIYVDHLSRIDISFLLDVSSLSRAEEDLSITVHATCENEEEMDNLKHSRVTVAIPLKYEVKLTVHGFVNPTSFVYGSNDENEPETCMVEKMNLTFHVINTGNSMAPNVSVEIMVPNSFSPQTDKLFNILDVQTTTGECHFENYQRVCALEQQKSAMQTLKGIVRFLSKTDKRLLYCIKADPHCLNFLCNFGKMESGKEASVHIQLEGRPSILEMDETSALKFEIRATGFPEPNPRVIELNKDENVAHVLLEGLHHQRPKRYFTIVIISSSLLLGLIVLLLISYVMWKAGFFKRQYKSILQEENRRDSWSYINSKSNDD
Protocol: (§1) Cell Surface labeling and GST Pull-down Assay. Ch-1 cells were incubated with EZ-link Sulfo-NHS-Biotin reagent for 30 mins. according to the product instruction (Sigma). After 3 washes with 0.1 M glycine in PBS, the cells were lysed with a lysis buffer described above. […] The membrane was washed and incubated with antibodies and then incubated with a secondary antibody coupled to horseradish peroxidase. The antibody complex was visualized by enhanced chemiluminescence.

[3] = molecular target: T3, β1 integrin (human, UniProt P05556 21-798); experiment: GST pull-down from surface-biotinylated Ch-1 lysate, Western blot (FIG. 3K)
T3 construct: whole, on cells; Probed by Western blot in the material pulled out by PIIBNP
T3 sequence (P05556 21-798): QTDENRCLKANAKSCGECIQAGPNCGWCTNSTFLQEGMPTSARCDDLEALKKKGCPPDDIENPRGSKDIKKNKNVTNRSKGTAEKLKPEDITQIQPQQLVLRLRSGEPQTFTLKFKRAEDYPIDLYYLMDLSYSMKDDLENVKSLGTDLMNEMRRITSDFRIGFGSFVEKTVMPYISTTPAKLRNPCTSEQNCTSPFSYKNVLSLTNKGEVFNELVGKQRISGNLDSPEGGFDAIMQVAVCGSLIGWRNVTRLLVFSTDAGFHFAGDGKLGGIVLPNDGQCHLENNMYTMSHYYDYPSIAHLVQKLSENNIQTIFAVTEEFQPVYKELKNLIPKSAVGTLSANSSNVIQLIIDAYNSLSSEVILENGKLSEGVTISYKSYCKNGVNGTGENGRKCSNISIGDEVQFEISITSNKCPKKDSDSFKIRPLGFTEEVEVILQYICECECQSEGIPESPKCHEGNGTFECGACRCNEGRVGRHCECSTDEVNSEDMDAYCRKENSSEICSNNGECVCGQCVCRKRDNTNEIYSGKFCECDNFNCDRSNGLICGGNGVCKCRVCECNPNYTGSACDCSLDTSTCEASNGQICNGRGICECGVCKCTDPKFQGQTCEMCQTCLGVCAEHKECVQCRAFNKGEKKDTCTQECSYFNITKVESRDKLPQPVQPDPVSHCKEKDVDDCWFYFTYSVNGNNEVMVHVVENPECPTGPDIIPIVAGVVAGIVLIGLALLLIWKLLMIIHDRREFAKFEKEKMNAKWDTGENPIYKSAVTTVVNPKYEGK
Protocol: as §1

Measured: binding result

T1 sequence (P08648 42-1049): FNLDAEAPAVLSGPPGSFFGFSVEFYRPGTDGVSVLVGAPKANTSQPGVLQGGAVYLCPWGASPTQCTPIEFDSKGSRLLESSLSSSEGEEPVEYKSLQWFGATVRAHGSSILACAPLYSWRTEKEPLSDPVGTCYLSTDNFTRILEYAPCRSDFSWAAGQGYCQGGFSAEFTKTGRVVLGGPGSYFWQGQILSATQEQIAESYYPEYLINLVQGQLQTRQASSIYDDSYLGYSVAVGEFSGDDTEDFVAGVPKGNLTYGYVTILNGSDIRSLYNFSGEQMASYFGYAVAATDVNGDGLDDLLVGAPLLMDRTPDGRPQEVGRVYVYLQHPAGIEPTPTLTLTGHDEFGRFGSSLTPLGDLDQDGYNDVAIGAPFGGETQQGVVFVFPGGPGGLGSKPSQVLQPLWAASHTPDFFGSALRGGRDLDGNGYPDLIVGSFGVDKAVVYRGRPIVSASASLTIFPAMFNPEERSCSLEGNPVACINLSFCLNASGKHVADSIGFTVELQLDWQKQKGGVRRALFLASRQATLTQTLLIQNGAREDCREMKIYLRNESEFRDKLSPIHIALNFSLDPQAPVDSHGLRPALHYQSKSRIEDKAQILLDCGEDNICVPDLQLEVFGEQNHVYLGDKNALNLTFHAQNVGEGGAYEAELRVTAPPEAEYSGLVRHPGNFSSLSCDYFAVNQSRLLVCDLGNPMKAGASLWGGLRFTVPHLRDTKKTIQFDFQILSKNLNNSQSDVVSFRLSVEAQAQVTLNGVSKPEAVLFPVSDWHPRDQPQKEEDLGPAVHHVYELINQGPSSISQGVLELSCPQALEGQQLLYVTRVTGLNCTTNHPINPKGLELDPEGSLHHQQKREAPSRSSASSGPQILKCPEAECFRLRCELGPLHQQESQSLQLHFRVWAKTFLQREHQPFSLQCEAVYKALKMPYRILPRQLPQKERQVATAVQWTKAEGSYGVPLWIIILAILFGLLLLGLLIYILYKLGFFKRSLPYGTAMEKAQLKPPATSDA

B1: GST-PIIBNP (GST fusion of human Type IIB collagen amino propeptide, exons 3-8) (ligand)
chain: not shown
notes: domain: PIIBNP (exons 3-8); Expressed in E. coli BL21 (DE3) as a GST fusion; also called Type IIB propeptide; PPIIBNP; not shown: glutathione S-transferase (GST) tag encoded by the pGEX-4T-2 vector, thrombin-cleavable
no binding: [1] | [2] | [3]
